Experimental data from PMC9709975, “Chromatin-associated microprocessor assembly is regulated by the U1 snRNP auxiliary protein PRP40” (The Plant Cell, 2022).

Molecular target: T1, PRE-MRNA PROCESSING PROTEIN 40b (AtPRP40b), recombinant (Arabidopsis thaliana, UniProt F4JCC1 1-992)
T1 construct: AtPRP40b, Arabidopsis thaliana U1 snRNP auxiliary protein; Made as MBP-6xHis-AtPRP40b from a pMal-derived plasmid; MBP cut off with TEV protease; Detected with anti-PRP40b; source: E. coli BL21-CodonPlus(DE3)-RIL, purified (Ni-NTA, TEV cleavage, second Ni-NTA, size exclusion chromatography); not shown: MBP, N-terminal, cleaved
T1 sequence (looked up): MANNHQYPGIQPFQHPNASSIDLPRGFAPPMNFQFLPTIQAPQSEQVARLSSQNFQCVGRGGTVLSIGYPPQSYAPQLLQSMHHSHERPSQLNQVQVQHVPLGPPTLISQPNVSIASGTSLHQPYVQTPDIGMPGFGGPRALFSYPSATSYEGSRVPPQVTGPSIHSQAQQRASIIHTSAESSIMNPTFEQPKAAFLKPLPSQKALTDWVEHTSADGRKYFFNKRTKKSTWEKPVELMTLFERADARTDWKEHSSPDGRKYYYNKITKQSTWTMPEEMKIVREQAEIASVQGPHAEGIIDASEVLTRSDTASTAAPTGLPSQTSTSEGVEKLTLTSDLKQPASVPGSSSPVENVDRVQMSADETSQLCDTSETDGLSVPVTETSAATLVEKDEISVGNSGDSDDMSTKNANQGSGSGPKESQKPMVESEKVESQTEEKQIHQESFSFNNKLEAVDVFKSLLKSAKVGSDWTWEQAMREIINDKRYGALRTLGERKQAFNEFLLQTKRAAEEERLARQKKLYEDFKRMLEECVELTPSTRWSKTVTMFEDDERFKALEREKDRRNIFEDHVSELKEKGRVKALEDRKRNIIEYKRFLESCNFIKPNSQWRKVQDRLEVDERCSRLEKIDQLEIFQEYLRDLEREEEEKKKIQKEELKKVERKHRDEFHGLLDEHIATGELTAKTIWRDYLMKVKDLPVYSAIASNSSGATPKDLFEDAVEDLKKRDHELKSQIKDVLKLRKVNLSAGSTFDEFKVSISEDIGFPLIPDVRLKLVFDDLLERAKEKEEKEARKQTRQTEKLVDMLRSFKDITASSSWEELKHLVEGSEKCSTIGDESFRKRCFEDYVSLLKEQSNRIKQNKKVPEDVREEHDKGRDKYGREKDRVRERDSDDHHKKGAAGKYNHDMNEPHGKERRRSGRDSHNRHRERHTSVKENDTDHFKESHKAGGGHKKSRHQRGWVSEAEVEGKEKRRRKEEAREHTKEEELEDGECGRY
Test: pull-down; 2 µg biotinylated CTD peptide on streptavidin paramagnetic particles; 2 µg of SE variant and AtPRP40b together; 1.5 h at 4°C in PBS pH 8.3, 5% glycerol, 1 mM DTT, 0.1% NP-40; five washes, immunoblot
Conditions: both partners purified

B1: SERRATE (SE), full length, recombinant (natural protein, Arabidopsis thaliana, UniProt Q9ZVD0 1-720, looked up)
chain: MADVNLPPSDSVDNRLPEKSTSSSPPPPPPSSSLPQQEQEQDQQQLPLRRERDSRERRDERDIERPPPNRRERDRSPLPPPRRDYKRRPSLSPPPPYRDRRHSPPQRRSPPQKRYRRDDNGYDGRRGSPRGGYGPPDRRFGYDHGGGYDREMGGRPGYGDERPHGRFMGRYQDWEGGRGGYGDASNSGNPQRDGLMSYKQFIQELEDDILPSEAERRYQEYKSEYITTQKRAFFNTHKEEDWLKNKYHPTNLLSVIERRNDLAQKVAKDFLLDLQSGTLDLGPAVTALNKSGRTSEPNSEDEAAGVGKRKRHGMGGAKENELLSAAPKAPSFTSDPKRILTDVEQTQALVRKLDSEKKIEENVLQGSETEKSGREKLHSGSTGPVVIIRGLTSVKGLEGVELLDTLVTYLWRVHGLDYYGKVETNEAKGLRHVRAEGKVSDAKGDENESKFDSHWQERLKGQDPLEVMAAKEKIDAAATEALDPHVRKIRDEKYGWKYGCGAKGCTKLFHAAEFVYKHLKLKHTELVTELTTKVREELYFQNYMNDPNAPGGQPATQQSGPRDRPIRRKPSMENRLRDDRGGRRERDGRANGNDRNDRSEDQQRGDNDGGNPGEVGYDAFGGQGGVHVPPFLSDINPPPMLMPVPGAGPLGPFVPAPPEVAMQMFRDPSGPNPPFEGSGRGGPAPFLLSPAFRQDPRRLRSYQDLDAPEEEVTVIDYRSL
notes: SERRATE, Arabidopsis thaliana, core component of the plant microprocessor; full length (720 residues by the printed deletion Δ681-720); Made as MBP-6xHis-SE from a pMal-derived plasmid; MBP cut off with TEV protease; source: E. coli BL21-CodonPlus(DE3)-RIL, purified (Ni-NTA, TEV cleavage, second Ni-NTA, size exclusion chromatography); not shown: MBP, N-terminal, cleaved
- binding result: binds
